Target: T1, mouse R1 protein (Mus musculus, UniProt P07742)
T1 construct: made in house; host or cells: E. coli BL21 (DE3)pLysS, pET3a
T1 sequence (P07742 1-792): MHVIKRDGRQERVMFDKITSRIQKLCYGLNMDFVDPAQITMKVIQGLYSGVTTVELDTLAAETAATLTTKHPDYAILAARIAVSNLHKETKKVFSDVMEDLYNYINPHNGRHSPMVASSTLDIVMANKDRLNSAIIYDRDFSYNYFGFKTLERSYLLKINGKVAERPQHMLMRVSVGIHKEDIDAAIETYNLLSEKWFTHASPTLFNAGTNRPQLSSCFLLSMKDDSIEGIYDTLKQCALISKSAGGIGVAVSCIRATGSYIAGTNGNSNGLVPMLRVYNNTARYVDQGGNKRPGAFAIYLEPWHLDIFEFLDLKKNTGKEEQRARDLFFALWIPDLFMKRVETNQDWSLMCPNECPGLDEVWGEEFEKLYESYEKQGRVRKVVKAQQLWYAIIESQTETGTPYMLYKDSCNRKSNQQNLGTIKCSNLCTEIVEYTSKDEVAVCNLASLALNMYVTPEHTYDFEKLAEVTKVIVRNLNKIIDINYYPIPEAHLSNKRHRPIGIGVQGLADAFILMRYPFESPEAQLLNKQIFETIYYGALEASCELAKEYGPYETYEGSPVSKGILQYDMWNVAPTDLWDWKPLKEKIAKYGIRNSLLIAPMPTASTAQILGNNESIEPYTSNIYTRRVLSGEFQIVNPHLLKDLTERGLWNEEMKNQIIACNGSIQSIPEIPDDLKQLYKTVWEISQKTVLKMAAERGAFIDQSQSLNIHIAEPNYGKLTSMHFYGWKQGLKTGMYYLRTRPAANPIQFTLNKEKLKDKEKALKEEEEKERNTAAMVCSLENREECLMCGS
Experiment: BIAcore biosensor analysis, immobilized Sml1p and mouse R1 protein
Format: binding
Conditions: not quantified
Description: FIG. 14 Sensorgram showing the interaction between immobilized Sml1p and the mouse R1 protein. […] Curve 3 showes the response with mouse R1 protein alone at 0.1 mg/ml passed over immobilized Sml1p. Note that the injection time for this curve is prolonged from 6 min to 14 min.
BIAcore biosensor analysis. The interaction between Sml1p and either yeast Rnr1p or mouse R1 protein was studied by biosensor analysis using the BIAcore method (Biacore AB). The Sml1 protein was prepared in 10 mM sodium acetate, pH 5.2, at a concentration of 0.44 mg/ml; it was then immobilized on the dextran layer of the sensor chip as described previously for the mouse R2 protein (17). The ligand proteins were equilibrated with running buffer (10 mM Hepes-KOH, pH 7.4, 200 mM potassium acetate, 1 mM EDTA, 5 mM magnesium acetate and 0.05% Surfactant P20 (BIAcore). The interactions were studied at a constant temperature of 22° C. and a constant flow of 5 μl/min. Kinetics for the interaction of Sml1p with yeast Rnr1p was determined by allowing the immobilized Sml1p to interact with increasing concentrations of Rnr1p (18). The resonance unit (RU) is proportional to the mass, and 1 RU corresponds to a surface concentration of 1 pg of protein/mm^2 of the 100 nm thick dextran layer (19).
Kinetic studies of the interaction between the mouse RNR R1 protein and the Sml1 protein using a biosensor technique. […]

B1: Sml1p: 104 amino acid yeast protein encoded by YML058w (SML1) that binds Rnr1 and inhibits ribonucleotide reductase; recombinant, expressed in E. coli (protein)
chain: MQNSQDYFYAQNRCQQQQAPSTLRTVTMAEFRRVPLPPMAEVPMLSTQNSMGSSASASASSLEMWEKDLEERLNSIDHDMNNNKFGSGELKSMFNQGKVEEMDF
binding to mouse R1 protein: high affinity
